Laboratory results published in patent US20210188933A1.

Target: IL-15RβγC
Test: cell-based or functional assay

ALT-803 (IL-15N72D:IL-15RαSu/Fc complex) (from UniProt Q13261 31-95) (Fc fusion)
EC50 of ALT-803 stimulated proliferation of IL-15RβγC-bearing cells: 0.016 nM
